Experimental data: the supplement of paper PMC12764529
± gives the half width of the 95% confidence interval.

Key:
[1] = folding stability dG unfold (combined trypsin and chymotrypsin); higher = more stable
How it was run: (§1)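 Unfolding free energy was derived, per protease or combined, against a sequence-predicted unfolded-state K50 and a shared folded-state K50, starting from K50 inferred by Bayesian fitting of sequencing counts. Digestion with trypsin and chymotrypsin was carried out on designed mini-proteins under 80 residues without cysteine in a PA-tagged cDNA display construct. Only designs with AlphaFold2 dimer inter-PAE above 15 were kept.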

[2] = folding stability dG unfold from chymotrypsin proteolysis; higher = more stable
How it was run: as §1

[3] = folding stability dG unfold from trypsin proteolysis; higher = more stable
Method: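 Folding stability of de novo designed mini-proteins (<80 aa, no Cys; designed by TrROS, TrMRF, ProteinMPNN and the joint model) was measured by cDNA display proteolysis with trypsin and chymotrypsin. Each protease was used at 11 concentrations in a threefold dilution series plus a no-protease condition. K50 was inferred by Bayesian fitting of sequencing counts, and dG unfold was derived against a sequence-predicted unfolded-state K50 (Tsuboyama et al. method). Sequences shown include variable-length N-terminal GS-type padding (SAGGSAGG...) inside a display construct carrying a PA tag. Rows were kept only if the AF2 dimer inter-PAE was >15, to exclude likely homo-oligomers.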

Row | Sequence | folding stability dG unfold [1] | folding stability dG unfold [2] | folding stability dG unfold [3]
1 | SAGGSAGGSADPAFEALARAEGVPVEVTREGDTLVVTARRPDPAGREVVEEFRVPVPPELLESAGGSAGGSA [r18_27_JUSTAS] | < -1 kcal/mol | -0.174 ± 0.14 kcal/mol | 
2 | SNVFPMEMTITVPVRDPKNGKKKTVDIPVPMYYRMEPEPYPDGKREMEPIPMEQFLEEIRRQAKELAKKGSA [r9_698_TrROS] |  |  | 0.764 ± 0.21 kcal/mol
3 | SAGGSAGGSAGEWIPADYIRDFARNLGMPGKIDVERKEDGWFTIEIRNNGGPRKIQIPLDSAGGSAGGSAGG [r11_410_TrROS] | -0.548 ± 0.38 kcal/mol | 0.00957 ± 0.25 kcal/mol | 
4 | SAGSHEAWFPIPELLNDPGLEDAWIRVTVHPTPNGNIDIDIEPEPVPKPKITPEEMQEQMEENNKQMKSAGG [r19_313_TrROS] | < -1 kcal/mol | -0.435 ± 0.064 kcal/mol | 
5 | SAGGSAGGSPPVIHPMTVTTLAYDPATGVVDVLVDDKGKDPAVREAAEAAARAAGHPVEVVPRSAGGSAGGS [r20_157_JUSTAS] | < -1 kcal/mol | -0.637 ± 0.34 kcal/mol | 
6 | SAGGSAGGSAGKKKIHVHQYPDGNYHIRVPNGKSYHFPPEDADELVEELGIDEVEIHPMDSAGGSAGGSAGG [r11_312_TrROS] | -0.407 ± 0.16 kcal/mol | 0.0552 ± 0.089 kcal/mol | 
7 | SAGGSAGGSAGRRSVPEEVVEAIAEELPREGLTPKSIEVVEGEDEFEAVIEYDDRTITVAGSAGGSAGGSAG [r3_395_JUSTAS] | -0.101 ± 0.1 kcal/mol | 0.492 ± 0.023 kcal/mol | 
8 | SAGGTIEEIKEALKKLPEGAVVEVTTENGEKLEFKSLEEIKKATITNENGEKIKITEVKVYPAKKEKSAGGS [r16_680_TrROS_Hall] | < -1 kcal/mol | 0.569 ± 0.16 kcal/mol | 
9 | SAGGSAGGNNPPKTREIWIPPDDPDDLKDLKIDGPPGDTHHFRNPGGPYRITVTDGDPKVEPWGSAGGSAGG [r6_551_TrROS] | < -1 kcal/mol | -0.301 ± 0.49 kcal/mol | 
10 | MTEKEIKEKAEEIAKKIAEEKGTEIKSAKIGGYVNVPVKVKEKLDENGKPVFEFEGKKVKVKVEVELKKKKS [r1_91_TrMRF] | < -1 kcal/mol | 0.567 ± 0.33 kcal/mol | 
11 | SAGGSAEKKINSPEEIKRFAKELEKKGIKILSIDAVKFPSGPVVEYKMPVLHPENGKLSTLYIKSGSAGGSA [r15_123_TrMRF] | < -1 kcal/mol | -0.352 ± 0.51 kcal/mol | 
12 | SAGGSAGGSAGGEPEPIPIKVKIYNPEDGKKREVDFWIPYGNIKEVLKELMPKGYKVEIESAGGSAGGSAGG [r7_230_TrROS] | -0.506 ± 0.33 kcal/mol | -0.281 ± 0.23 kcal/mol | 
13 | SAGGSAGGSAGGSFTLTTPGRTETVPAGSEVYFGNGIKLHPDLPLADIPPELLTPIGTRPSAGGSAGGSAGG [r17_511_TrMRF] | -0.229 ± 0.24 kcal/mol | 0.48 ± 0.27 kcal/mol | 
14 | SAGGEELVIEFDSLEDALSAIYPRPDLDKVTLVVPGEGVPVVIPVTVTPPDLGVLGRSAEDRPVPLLGSAGG [r13_183_TrMRF] | < -1 kcal/mol | -0.825 ± 0.2 kcal/mol | 
15 | SAGGKITIDVNYNPEENNFRIKITWPNGKEKELPIPMEGMPAEDMRREAREFAQNLNPDGLKEVEIEPSAGG [r13_267_TrROS] | 0.285 ± 0.43 kcal/mol | 0.369 ± 0.21 kcal/mol | 
16 | SAGGSAGGSAGSPNYIPKEVTIKVEGEGKPVEVKIKLTTSPEGKPASEEEILKKAEELLKSAGGSAGGSAGG [r17_373_JUSTAS] | 0.0156 ± 0.34 kcal/mol | 0.372 ± 0.058 kcal/mol | 
17 | SAGGSSPPTTTRTFAHPDGRTTELTVPTLPDGTPVVTTTTGGTTTTLSLSQLEKLPSSWTFTSTSSSAGGSA [r2_431_JUSTAS] | -0.971 ± 0.64 kcal/mol | -0.27 ± 0.24 kcal/mol | 
18 | SAGGSAGGSAPKFDLRPEVFPLEDDSFLFVSRLLDPDKRLLTLVKVPPNGGLELGDVLLLDSAGGSAGGSAG [r3_165_TrMRF] | -0.829 ± 0.33 kcal/mol | -0.176 ± 0.3 kcal/mol | 
19 | SAGGSAGGSAGGMLSPEVGLPEVPVTLTDPTNDKVYTITVPPDTNPAEVAAALGVALLLSAGGSAGGSAGGS [r10_202_JUSTAS] | -0.237 ± 0.38 kcal/mol | 0.699 ± 0.23 kcal/mol | 
20 | SAGGSAGGSAGGPALAEELARKLPPGARVRVRVERDADGNLTITVEVEPAPPVEVVEEESAGGSAGGSAGGS [r10_385_TrROS_Hall] | -0.06 ± 0.23 kcal/mol | 0.366 ± 0.044 kcal/mol | 
21 | SAGGSAGGSAGGMTETKVYPKSSEGGKLTTITTTTTPLKDPKGNWSTKTTTTTSVSPATSAGGSAGGSAGGS [r10_496_JUSTAS] | -0.486 ± 0.27 kcal/mol | 0.131 ± 0.15 kcal/mol | 
22 | SAGGSAGGSGYPGLPMPVLRVRFAGDPEPVFIPVPADRPDVARAAAEELRALRPDVPVELELGSAGGSAGGS [r12_601_TrMRF] | 0.107 ± 0.057 kcal/mol | 0.823 ± 0.045 kcal/mol | 
23 | SAGGGNPPVLKIELTKTYHPPDGTKVELYRVEHPVEPREIYIVKTYPDDGAEEVKIVKEEELKEALKSAGGS [r8_421_JUSTAS] | < -1 kcal/mol | 0.771 ± 0.36 kcal/mol | 
24 | SAGGSAGGSAGNPKYVMVPLKFPDGNPVNIMVSDDEIHIYDMGPNKWRWIPADDLPPEAFSAGGSAGGSAGG [r11_155_TrROS] | 0.215 ± 0.15 kcal/mol | 0.666 ± 0.15 kcal/mol | 
